Measured values: the DeepSol protein solubility set

test: soluble on expression in E. coli; label from the status in PepcDB or PDB records

Soluble on expression in E. coli, not soluble:
MGSDKIHHHHHHMGNCQILSSGDKIKLIRKKYGLRQDDIVGEEVTRNLISQIEHNKAKLTKSTAEIIIKNLKEIAKKNNLEMDVTADYLLEDELAQANSILENYVDELKNLLVYKCSRFYESLKSAEEFLIQWDIKEKKVQIYELAGDYFYIQNDLAKSVLYYEKAFDILDKTSYNKSLLSILRKLSLMYLNSLKYDRSIECCNFALNHFKNMPDDYISIFLFNTALCYYYMHYYEKALEVIDNLEPLIKDNTSKLIDVLNNKACCLSDLNRIDEAAEIYLRIFNLLNTNNIKSSQYLLILSNLIDTFAKKDVKDEVIKYLNLLLDRFPTSSQDDSYLSVACFNAAKAFIYLGDLQKAEEYLLKALTLSKNHNKYSLQEKTLSLLTDLYIQLNDFEKLEEINLEAVVLSNSQQKVCTNIFYKLLKFLNQNNKTEDIDKILNFLIKFK
MGSDKIHHHHHHMGNRTRTIAGKDITRSVADALQYISYYHPPDYIRSLSQAYAREQSPAAKNAIGQILLNSRMAAFGRRPICQDTGLVVVFAKVGMETRIKSTISFADLVNEGVRQAYLDPDNPLRASIVADPLAGRVNTRDNTPAVVHVDLVQGNQIEITIAAKGGGSENKARFTTLNPSASVSDWVIDTVSTLGSGWCPPGLISVGIGGSAEKAMLLAKEAMNKPIDMSELIARGPSSAEEALRIELYERINALGIGAQGLGGLTTVVDVKVATYPTHAASKPVALIPQCAANRHLKFTLDGSGPIRVQPPDLCEWPDIGTDELSPAGVRRVNLDALTKEETASWRCGETLLLSGKMLTGRDAAHKRMVELIDAGKPLPFDLQGRVIYYVGPVRAVRDEVVGPAGPTTSSRLDDFTDKVLAETGLFAMVGKAERGRAAIESIVRHKTPYLIAVGGAAYLISKSIKSARLIAFEDLGMEAVYEFEVQDMPVIMAVDVDGNSIHNSGPLEWRKRMAADSIARNIGV
MGSDKIHHHHHHMGRRGLMTETTYYVNGTEVYVAEIPSNQSTETFFLIHGFVSSTYSYRKLMPLLAKRGRVISVDLPGFGRSGKGRTFTYSFQCYAELMVALMRKLNVSKVTFVGHSMGGQVALYVAKWKPHLVKRLVLLSSSGYLQRVKRPFYFLSYIPFLRQMVKWYVQRQDVTKALQQVVYNKGIVNNEAVEMYRLPLADETFYDALLCLMRQREGDLPKEELRKIHHPVLLLWGEQDRVIPVKIGQRLASDLPNASLIVYKNTGHLLPEERPKEIMKAIDRFIRKRRQFSFFS
MGSDKIHHHHHHMGSLAVIDAPGWYETIRMADGVTLIHEPWIKPFFRCNIWHVRGRDRDLLFDTGLGHFSLRTHVPLVTERKLTCVASHTHFDHIGCHHEFPDRGVHPAEAKILADPRNEWTVADRYATDDMFDGLPQGWESSRYRILPAPADRLLDHGDVVDLGDRAFEVIHTPGHSPGGIALYEKKTGILLSGDIIYDGPLIDDVYHSDIPDYMATLLAMRELDVSVVHGGHFPSFGKVRYRQLIDEYLAQKRRAGCHLRQRP
MGSDKIHHHHHHMHEHFMTPPPLSVTGKPAIRIGCAGWGIPPQHAALFPPGGGHLERYARLFDTVEIDSSFYRPHQHKTYVRWADTVPDSFRFWVKTPREITHQRRLLECEDSLLRFLEEISGLGYKLGGILVQLPPSLALDVPSAQAFFTLLRQHYAGVAACEPRHASWFSMQGEKLLQDFRLARVAADPAKFPTAGTPGGDTGFSYYRLHGAPEIYYSSYPEAYLRQLAHTLQASIGPAWCIFDNTARGGATANAWDIMRLLDKTMHQD
MGSDKIHHHHHHMHFVITGSLGHIGKPLAIQLSKEGHAVTVVSSNTERIKEIESIGAKAAIGSVEDPGFLTETFRGADAVFTMVPPNMNAADWKAWIAGIGKNYVAAIKESGVKHVVNLSSIGAHMVDKCGPVSGLSQVELAMDEMKGVNVHHLRAGYFYTNFLNSIGQIKNQGIITGNYMPDLKMVLVHPADIADIAARALKDESYLGRGFSYIASDEKTPAEIVTILGKATGRMDLKWVERTDKEEYDDLIAIGLPEEIAKNYTEMGAALRSGDMNADYFRNRPVMAGWRTFDSFMPEFIATYNA
MGSDKIHHHHHHMHFVMIFLDGFGLGGDRDNPIMAAHTPYIDELLGGHYLWGQERRIESEQLILIPLDASLDVTGIPQSATGQTTLWTGVNGAKALGFHLNAYPNEKLAEIIKEKSIFKQLADQGKKVTFANTFTSHYDEMIASGKRRHTASTLSALAGGVPLRRIEDLLQGKGVYQDMTNEILRELEQEADIPLITSYEAGKNLGRLALDYDFTLYEFFQTDVRGHKQDWEKAVALIEQIDGFIGGFMSVVRHEDVTWLLTSDHGNIEDFRVKGHTQNPVPALGWSSKPLEWPQWERLEDVTPGIVRMILGTREL
MGSDKIHHHHHHMHISLGPLLYCWQKQQVTDFYQQVAASQIPLVYLGEAVCSRRREFKWGDYLELAQMLKQAGKEVVISTLALIEAPSEYTELKRQVDNGEFMVEANDMAAVYLANEHKLPFVCGASINNYNRASLDILQRFGMQRFVMPVELSKAWLSQVIQQKPSFEVEVLGHGYLPLAHSARCFTARHKQLTKDHCETVCREYSKGLVAQTQEQQPLLRLNGIQTQSASCLDLRSEITTMAKMGVDVFRVSPSSLDCIATANALVDAINTPENAQHFAISSDANLERTQCNGYWFGEAGLAVHANP
MGSDKIHHHHHHMHLGKYIKKYRDTNNLSMAEFAKESGISKAYVSILEKNRDPRNGKEIIPSIPIIKKVSDTIGISFDDLLNSLDENQIVALNETKTEKNLTSSTLQKITSTSSQLEQPRQEKVLSFANEQLEEQNKVVSMFDRKVEETENYITDYVEGLVAAGLGAYQEDNLHMEVKLRADDVPDKYDTIAKVAGNSMEPLIQDNDLLFVKVSSQVDMNDIGIFQVNGKNFVKKLKRDYDGAWYLQSLNKSYEEIYLSENDNIRTIGEVVDIYREN
MGSDKIHHHHHHMHMQSPIQRRKSRQIHVGHVPVGGDAPIAVQSMTNTDTLDVDATVAQIRQLEAAGADIVRVSVPTMDAAEAFGQIKRQVSVPLVADIHFDYKIALRVAELGVDCLRINPGNIGREDRVRAVVDAARHHGIPIRIGVNAGSLEKDLQKKYGEPTPEALVESAMRHIEHLDRLDFQDFKVSVKASDVFMAVAAYRQLAQRIDQPLHLGITEAGGLRSGTVKSSIGLGLLLMEGIGDTIRVSLAADPVEEIKVGYDMLKSLRLRSKGINFIACPSCSRQNFDVIGTMNALEERLDDIMTPLDVSVIGCVVNGPGEAKESDIGLTGGDPANLVYIDGKPASKLRNDHLVDDLEALIRDKVREKEARERDTIAREA
MGSDKIHHHHHHMHWRGEYSCLSDSWRVSTQEDGGRLQMLTFRSARPEDEDALYAISLATGDAGQDATPLYNDGRMVGHIYSVPYLRLWPDAVFVAEDEEGVCGYIAGALDTVLHEQRLEQEWWPHLRALYPDPGGDPQTWDADQRRAHFIHHPRNTPSWLTDPFPAHIHMNLLPRTQGKGGGTRLLSRWLDMARQNNVYGIHLGASERNHAGMRFWETRGFKHLDSHETPGSVWFGMALE
MGSDKIHHHHHHMIDAFVRIGPLMDPASYPQWAQQLIEDCRESKRRVVEHEFYARLRDGQLKQSTIRQYLIGGWPVVEQFSLYMAHNLTKTRYGRHQGEDMARRWLMRNIRVELNHADYWVNWCQAHGVHLHELQAQEVPPELNGLNDWCWRVCATENLAISMAATNYAIEGATGEWSAVVCSTDTYAQGFPEEGRKRAMKWLKMHAQYDDAHPWEALEIICTLAGENPTLGLRTELRRAICKSYDCMFLFLERCMQLEGRQQGRMRPALAAG
MGSDKIHHHHHHMIDFLLLKSLHSLLGLTITVCDQNFSVIREYKSEKTISLFYNHYLILSNFSKTQHDFLFHYGSLGELFLVHHIQQYYIIIGPWRSNVIDPLLLKKKLTETQINASEQDYFIDRLSQLPFFSLSQIRELLIVTNYCLTGVVKDKLSEPLHYYTKGWSNSFDLDKIKQFSKQNMSSYKYQYHFENNILKAVKSGSEFLLKETVEQFSNSIVPIISGDELRSEKNYSIMIYDRLSQATIQAGLDIETAYRARDRFIKENESTISLNEVLKLRDTAILFYTQQVHSLKKHLETPHSQTIVAVIRYLENNLNRFIKTEEIAKECHMSESKLRKLFKQEKHITIQQYFLNLKIEAAKQLLDENKKVEEVSNLLGFSTSSNFSRTFKKIVGISPLEYKQKPKTI
MGSDKIHHHHHHMIDGKTANEIFDSIRQHIIAGTLRAEDSLPPVRELASELKVNRNTVAAAYKRLITAGLAQSLGRNGTVIKGSPSPVALEGGDPHTPLHDLSGGNPDPQRLPDLSRYFARLSRTPHLYGDAPVSPELHAWAARWLRDATPVAGEIDITSGAIDAIERLLCAHLLPGDSVAVEDPCFLSSINMLRYAGFSASPVSVDSEGMQPEKLERALNQGARAVILTPRAHNPTGCSLSARRAAALQNMLARYPQVVVIIDDHFALLSSSPWQPVIAQTTQHWAVIRSVSKTLGPDLRLAIVASDSATSAKLRLRLNAGSQWVSHLLQDLVYACLTDPEYQHRLTQTRLFYAARQQKLARALQQYGIAISPGDGVNAWLPLDTHSQATAFTLAKSGWLVREGEAFGVSAPSHGLRITLSTLNDSEINTLAADIHQALNR
MGSDKIHHHHHHMIDIAEETGYQYEILISTRTSDEENYYYDEIKVVSRNTRKRSEGLARAVKSATGNYAFIFEPSVRYSLTYADLIYGYINLGTSEVLVSNILGFQTDVIKNVGNWRPLTCGEDIDLMARAFDSYGVISYPMGGLTGLDIDDLIYGKWRNRIEKALAMRDLVIAANLKHNNIAEMAESMGIDLPTYEWLISGRILSYLSGIRPYEKNVNNYIFIMERIIESYISQDYRRIDTVSASPYISLSNRTRKYLSSVSDLWTEQNTDNKYPRESV
MGSDKIHHHHHHMIDLHCHILSGIDDGAQTITDSLAMAQQAVAEGIHTIVATPHHQNGKYVNERASIIHQVKQLNDELQQHEIPLKVLPGQEVRLYGGLLEDYEAGKIVTLNETNKYIFIEFPSNHVPRYTEQLFYELRVKGMIPIIVHPERNAELIERPDKLYNLVNKGALTQVTAGSLLGKFGKKIKRFSLQLVEHNLTHMIASDAHNTTSRGFHLEESYELIEKEFGTTVMNDLRENPYLIISGKAIYKEDPEQIRRKKLFGIF
MGSDKIHHHHHHMIDMNLILKKKFQEISEVDDFISKASTETDYFEPSTLSHGIPGIILFLDAYQKVFDINTEQIVHKYIMKLAPYLQSGQYNNSLFGGLSGIAFSMDLASQNGKNYQNILNNIDGHIVNEIENKFDQILQEPLNPLNYDTVSGLAGIGRYLLNRVDENEFNVKALKSILVYFKDIQYSKNSWVVPQESQFLESDKNYFTEGNINLGLAHGVLGPMSLFALCVIKGITIENHQHILKDMYKFIMDEKFCNHERWLQRYDLISERNHFNFIRNGWCYGNTGVMTTLFLIGQALYYYEIIKMSKKVMLQVVNDKDENLISPTICHGLSSQILMLTIMNLNFELNEVSDYITVLINKLISHYKEDYLVNFIDINENKQDVFKSRKVGLLEGELGVYLTLMTLKNTKILNEKNWTNAFLIS
MGSDKIHHHHHHMIEKPNAICLKNRKIIKVTGEEATHFLQALITTDVKKIGLQEIFPGALLSPQGKVLADFLIGKREDGYFIDIFSSLSDLLYKRLLLYKMRTKVEIMQPLQEFVTVSWENETDSLNFYSSFIDKRFPAKEKIIRIYGETPFLASECHDNWNRLRIRYAIPESDKDYEIGKVFPHDINYDQINGLAFNKGCYIGQEVVSRMHHRRAARRRILLVKSQHELIPGANIVAGTKILGSLGTCAANEALALMRIDHIKDAMDHNTPFTVKDVPVTISIAENMNFTFPESTV
